For this test, the target named is T1, human complement factor H (human, UniProt P08603 19-1231).
T1 construct: complement factor H, human; used at 500 nM in the ELISA; also called FH; human FH
The experiment in a line: ELISA; 1 µg histidine-tagged CspZ coated on wells, blocked with 5% BSA in PBS; PBS (control), irrelevant human IgG, #1139c or #1193c (0.4-50 nM) added, then 500 nM human FH; bound FH detected with sheep anti-human FH and donkey anti-sheep HRP. To be noted: both partners purified.

T1 sequence (P08603 19-1231): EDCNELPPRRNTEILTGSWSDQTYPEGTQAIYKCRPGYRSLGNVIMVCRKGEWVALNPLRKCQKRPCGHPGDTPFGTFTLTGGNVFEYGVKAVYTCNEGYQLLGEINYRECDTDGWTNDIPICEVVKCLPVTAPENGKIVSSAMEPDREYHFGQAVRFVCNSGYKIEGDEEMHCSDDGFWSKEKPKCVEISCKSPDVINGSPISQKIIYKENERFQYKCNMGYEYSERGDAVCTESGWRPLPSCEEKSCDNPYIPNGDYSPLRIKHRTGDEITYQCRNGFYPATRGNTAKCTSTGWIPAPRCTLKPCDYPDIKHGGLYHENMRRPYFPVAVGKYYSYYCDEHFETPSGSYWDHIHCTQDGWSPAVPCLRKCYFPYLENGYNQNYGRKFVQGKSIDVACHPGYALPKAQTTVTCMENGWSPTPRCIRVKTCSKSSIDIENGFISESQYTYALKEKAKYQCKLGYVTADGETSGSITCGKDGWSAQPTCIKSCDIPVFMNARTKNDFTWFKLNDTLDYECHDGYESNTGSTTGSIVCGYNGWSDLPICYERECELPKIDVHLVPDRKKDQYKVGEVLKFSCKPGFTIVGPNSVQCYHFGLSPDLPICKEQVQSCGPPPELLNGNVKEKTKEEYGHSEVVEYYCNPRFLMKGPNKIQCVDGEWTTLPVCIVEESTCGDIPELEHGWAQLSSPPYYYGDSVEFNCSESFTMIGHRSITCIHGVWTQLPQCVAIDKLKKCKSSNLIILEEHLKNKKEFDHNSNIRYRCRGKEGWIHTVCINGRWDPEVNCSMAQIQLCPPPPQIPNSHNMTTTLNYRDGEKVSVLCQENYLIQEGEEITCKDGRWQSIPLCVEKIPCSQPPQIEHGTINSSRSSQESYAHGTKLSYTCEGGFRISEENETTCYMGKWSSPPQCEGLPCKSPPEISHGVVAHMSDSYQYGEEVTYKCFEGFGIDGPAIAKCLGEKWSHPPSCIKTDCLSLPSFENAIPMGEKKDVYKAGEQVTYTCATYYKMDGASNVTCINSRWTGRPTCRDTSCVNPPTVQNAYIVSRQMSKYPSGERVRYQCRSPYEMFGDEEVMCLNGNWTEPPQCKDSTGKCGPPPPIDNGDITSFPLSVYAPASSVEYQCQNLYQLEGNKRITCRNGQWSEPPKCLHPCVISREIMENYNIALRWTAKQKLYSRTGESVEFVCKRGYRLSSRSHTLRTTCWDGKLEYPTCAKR

B1: histidine-tagged CspZ (B. burgdorferi B31 CspZ) (natural protein)
chain: RLNQRNINELKIFVEKAKYYSIKLDAIYNECTGAYNDIMTYSEGTFSDQSKVNQAISIFKKDNKIVNKFKELEKIIEEYKPMFLSKLIDDFAIELDQAVDNDVSNARHVADSYKKLRKSVVLAYIESFDVISSKFVDSKFVEASKKFVNKAKEFVEENDLIALECIVKTIGDMVNDREINSRSRYNNFYKKEADFLGAAVELEGAYKAIKQTLL
notes: CspZ (BbCRASP-2), outer surface protein of Borrelia burgdorferi strain B31; codon-optimised synthetic DNA in pET28a (BamHI/SalI); this is a surmise; also called BbCRASP-2
For the molecule B1, the binding result was “binds”.

(Values after article PMC11973211, “Mechanistic insights into the structure-based design of a CspZ-targeting Lyme disease vaccine” (Nature Communications, 2025).)
